Data taken from paper PMC12732451, “Functional Coupling of Calcium-Sensing Receptor and Polycystin-2 in Renal Epithelial Cells: Physiological Role and Potential Therapeutic Target in Polycystic Kidney Disease” (International Journal of Molecular Sciences, 2025).

Molecular target: T1, Polycystin 2 (PC2), human, endogenous in PTEC (human (endogenous in PTEC), UniProt Q13563 1-968)
T1 construct: Polycystin 2 (PC2), encoded by the PKD2 gene, human, endogenous in PTEC; no construct, no residues stated; Endogenous protein, immunoprecipitated with anti-Polycystin-2 antibodies (Santa Cruz)
T1 sequence (looked up): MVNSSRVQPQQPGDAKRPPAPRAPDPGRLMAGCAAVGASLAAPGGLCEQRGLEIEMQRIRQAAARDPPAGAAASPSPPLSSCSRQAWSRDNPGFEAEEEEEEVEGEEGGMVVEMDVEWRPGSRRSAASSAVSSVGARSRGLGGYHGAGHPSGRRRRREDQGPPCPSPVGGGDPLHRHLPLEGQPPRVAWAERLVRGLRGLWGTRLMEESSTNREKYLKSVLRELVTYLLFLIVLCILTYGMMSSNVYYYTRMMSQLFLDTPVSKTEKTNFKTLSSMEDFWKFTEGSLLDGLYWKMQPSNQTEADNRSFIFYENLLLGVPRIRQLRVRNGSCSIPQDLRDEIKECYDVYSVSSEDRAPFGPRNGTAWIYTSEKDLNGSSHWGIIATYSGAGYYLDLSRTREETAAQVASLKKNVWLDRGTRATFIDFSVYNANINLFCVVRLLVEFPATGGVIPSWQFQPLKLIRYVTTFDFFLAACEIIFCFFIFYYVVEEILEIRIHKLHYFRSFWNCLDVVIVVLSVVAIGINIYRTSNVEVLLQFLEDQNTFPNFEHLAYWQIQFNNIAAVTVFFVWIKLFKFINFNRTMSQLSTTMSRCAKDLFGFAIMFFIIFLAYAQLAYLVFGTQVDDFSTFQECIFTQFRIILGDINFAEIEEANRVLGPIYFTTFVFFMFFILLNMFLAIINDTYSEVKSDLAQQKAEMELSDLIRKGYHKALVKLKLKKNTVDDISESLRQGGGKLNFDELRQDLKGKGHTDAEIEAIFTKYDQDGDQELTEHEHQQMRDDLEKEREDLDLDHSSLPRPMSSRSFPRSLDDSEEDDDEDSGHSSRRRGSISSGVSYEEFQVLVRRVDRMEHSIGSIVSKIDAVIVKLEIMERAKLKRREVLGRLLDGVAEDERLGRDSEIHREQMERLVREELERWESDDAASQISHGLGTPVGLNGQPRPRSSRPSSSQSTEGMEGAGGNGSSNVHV
Assay: co-IP; PTEC wt and PC1KD (PKD1 knocked down) lysates (1% Triton X-100, 150 mM NaCl, 25 mM Hepes pH 7.4); anti-PC2 antibodies coupled to protein A-Sepharose, overnight; immunoblot with anti-CaSR and anti-PC2
Conditions: partners not purified

B1: Calcium Sensing Receptor (CaSR), human, endogenous in PTEC (receptor, human (endogenous in PTEC), UniProt P41180 20-1078, looked up)
chain: YGPDQRAQKKGDIILGGLFPIHFGVAAKDQDLKSRPESVECIRYNFRGFRWLQAMIFAIEEINSSPALLPNLTLGYRIFDTCNTVSKALEATLSFVAQNKIDSLNLDEFCNCSEHIPSTIAVVGATGSGVSTAVANLLGLFYIPQVSYASSSRLLSNKNQFKSFLRTIPNDEHQATAMADIIEYFRWNWVGTIAADDDYGRPGIEKFREEAEERDICIDFSELISQYSDEEEIQHVVEVIQNSTAKVIVVFSSGPDLEPLIKEIVRRNITGKIWLASEAWASSSLIAMPQYFHVVGGTIGFALKAGQIPGFREFLKKVHPRKSVHNGFAKEFWEETFNCHLQEGAKGPLPVDTFLRGHEESGDRFSNSSTAFRPLCTGDENISSVETPYIDYTHLRISYNVYLAVYSIAHALQDIYTCLPGRGLFTNGSCADIKKVEAWQVLKHLRHLNFTNNMGEQVTFDECGDLVGNYSIINWHLSPEDGSIVFKEVGYYNVYAKKGERLFINEEKILWSGFSREVPFSNCSRDCLAGTRKGIIEGEPTCCFECVECPDGEYSDETDASACNKCPDDFWSNENHTSCIAKEIEFLSWTEPFGIALTLFAVLGIFLTAFVLGVFIKFRNTPIVKATNRELSYLLLFSLLCCFSSSLFFIGEPQDWTCRLRQPAFGISFVLCISCILVKTNRVLLVFEAKIPTSFHRKWWGLNLQFLLVFLCTFMQIVICVIWLYTAPPSSYRNQELEDEIIFITCHEGSLMALGFLIGYTCLLAAICFFFAFKSRKLPENFNEAKFITFSMLIFFIVWISFIPAYASTYGKFVSAVEVIAILAASFGLLACIFFNKIYIILFKPSRNTIEEVRCSTAAHAFKVAARATLRRSNVSRKRSSSLGGSTGSTPSSSISSKSNSEDPFPQPERQKQQQPLALTQQEQQQQPLTLPQQQRSQQQPRCKQKVIFGSGTVTFSLSFDEPQKNAMAHRNSTHQNSLEAQKSSDTLTRHEPLLPLQCGETDLDLTVQETGLQGPVGGDQRPEVEDPEELSPALVVSSSQSFVISGGGSTVTENVVNS
notes: Calcium sensing receptor (CaSR), human, endogenous in PTEC; no construct, no residues stated; Endogenous protein, detected with a monoclonal anti-CaSR antibody (Sigma C0493); also called extracellular calcium sensing receptor
amount of CaSR immunoprecipitated with PC2 in PC1KD cells relative to wt (ratio CaSR/PC2): 1.34 fold (wt = 1)
